Measurements: patent publication US20230028110A1

Tests used:
[1] = target: Recombinant human FAPα (human) (UniProt Q12884); assay: SPR (Reichert 4SPR), antibody on Protein A chip, antigen flown over
[2] = target: FAPα on FAPα+ fibroblasts (human) (UniProt Q12884); assay: flow cytometry on BJ fibroblasts, anti-human Fc secondary antibody, % IgG bound cells
[3] = target: Recombinant human OX40 (human) (UniProt P43489); assay: SPR (Reichert 4SPR), antibody on Protein A chip, antigen flown over
[4] = target: OX40 on activated CD4 T-cells; assay: flow cytometry on anti-CD3/anti-CD28-activated CD4 T-cells, anti-human IgG secondary antibody, % cells bound IgG
[5] = target: PD-1 on activated CD4 and CD8 T-cells; assay: flow cytometry on anti-CD3/anti-CD28-activated CD8 T-cells, anti-human IgG secondary antibody, % cells bound IgG
[6] = target: PD-1 on activated CD4 and CD8 T-cells; assay: flow cytometry on anti-CD3/anti-CD28-activated CD4 T-cells, anti-human IgG secondary antibody, % cells bound IgG
[7] = target: Recombinant human TIGIT (human) (UniProt Q495A1); assay: SPR (Reichert 4SPR), antibody on Protein A chip, antigen flown over
[8] = target: TIGIT on activated CD8 T-cells (human) (UniProt Q495A1); assay: flow cytometry, anti-human IgG secondary antibody, activated CD8 T-cells
[9] = target: TIGIT on Vδ1 γδ T-cells (human) (UniProt Q495A1); assay: flow cytometry, anti-human IgG secondary antibody, Vδ1 γδ T-cells
TIGIT on Vδ1 γδ T-cells (human), sequence (Q495A1 22-244, stated change not applied): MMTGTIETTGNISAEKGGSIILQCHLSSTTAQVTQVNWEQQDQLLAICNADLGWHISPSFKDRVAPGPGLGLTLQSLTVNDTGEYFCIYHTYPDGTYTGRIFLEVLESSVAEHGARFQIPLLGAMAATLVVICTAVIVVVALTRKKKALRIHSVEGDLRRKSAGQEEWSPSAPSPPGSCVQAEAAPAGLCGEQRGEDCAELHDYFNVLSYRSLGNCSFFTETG

PD-1 on activated CD4 and CD8 T-cells, sequence (chain, as listed by the source limits assumed): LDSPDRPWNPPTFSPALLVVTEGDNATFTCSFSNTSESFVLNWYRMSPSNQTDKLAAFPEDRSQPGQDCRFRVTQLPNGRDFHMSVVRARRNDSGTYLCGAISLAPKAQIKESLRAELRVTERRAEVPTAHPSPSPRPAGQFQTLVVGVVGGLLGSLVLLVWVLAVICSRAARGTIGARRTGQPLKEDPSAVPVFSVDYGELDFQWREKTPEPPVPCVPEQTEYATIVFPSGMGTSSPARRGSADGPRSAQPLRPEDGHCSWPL
OX40 on activated CD4 T-cells, sequence (chain, as listed by the source limits assumed): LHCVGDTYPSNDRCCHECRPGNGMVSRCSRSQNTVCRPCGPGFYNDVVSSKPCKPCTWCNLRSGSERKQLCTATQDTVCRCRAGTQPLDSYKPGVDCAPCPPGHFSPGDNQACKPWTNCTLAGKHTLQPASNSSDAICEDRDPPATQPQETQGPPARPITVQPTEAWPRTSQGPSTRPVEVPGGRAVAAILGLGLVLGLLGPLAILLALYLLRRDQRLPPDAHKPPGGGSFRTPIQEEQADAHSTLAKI
TIGIT on activated CD8 T-cells (human), sequence (Q495A1 22-244 limits assumed): as the sequence (Q495A1 22-244, stated change not applied) above
Recombinant human OX40 (human), sequence (P43489 29-216 limits assumed): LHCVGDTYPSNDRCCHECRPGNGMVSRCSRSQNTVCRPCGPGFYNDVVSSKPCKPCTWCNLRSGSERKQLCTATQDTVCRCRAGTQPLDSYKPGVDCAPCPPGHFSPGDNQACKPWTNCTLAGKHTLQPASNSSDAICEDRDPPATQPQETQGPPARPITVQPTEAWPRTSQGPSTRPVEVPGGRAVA
Recombinant human TIGIT (human), sequence (Q495A1 22-141 limits assumed): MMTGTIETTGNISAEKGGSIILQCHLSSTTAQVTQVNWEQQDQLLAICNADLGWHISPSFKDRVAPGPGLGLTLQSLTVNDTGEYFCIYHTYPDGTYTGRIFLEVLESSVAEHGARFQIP

How did the Kd [1] turn out when “Anti-FAPα monoclonal antibody (based on sibrotuzumab)” was run?
The Kd was 3.9 nM.

What about the EC50 (read off the curve) [2] of the same substance?
The EC50 (read off the curve) was 0.08 nM.

What does the source list for “Anti-OX40 antibody (based on pogalizumab)”?
Kd [3]: 0.82 nM; EC50 (read off the curve) [4]: 0.1 nM

“Anti-PD-1 antibody (based on pembrolizumab)” was tested. Which EC50 (read off the curve) [5] did it give?
The EC50 (read off the curve) was 0.1 nM.

What about the EC50 (read off the curve) [6] of the same substance?
The EC50 (read off the curve) was 0.2 nM.

For “Anti-TIGIT antibody (based on tiragolumab)”, which Kd [7] is on record?
Its Kd is 0.3 nM.

What about the EC50 (read off the curve) [8] of the same substance?
Its EC50 (read off the curve) is 0.4 nM.

And the EC50 (read off the curve) [9]?
The EC50 (read off the curve) was 8 nM.
